The source of these data is publication PMC5167779.

In general, stoichiometry N refers to a count of units in the complex or per binding partner.

The target in assay [1] is XfYgiT, antitoxin of the toxin-antitoxin system of Xylella fastidiosa subsp. pauca strain 9a5c (Xylella fastidiosa subsp. pauca strain 9a5c). In words: SEC. In general terms: Size exclusion chromatography separates by hydrodynamic size, large species first.
Assay [2] has the same target. In words: AUC.
Assay [3] shares this target. In words: ITC.
Assay [4] has the same target. In words: SEC; […], sodium phosphate buffer ([…].

As to “XfMqsR, toxin of the toxin-antitoxin system of Xylella fastidiosa subsp. pauca strain 9a5c (natural protein)”, the stoichiometry N (mol/mol (printed as 1:1)) in assay [1] was determined as 1. The stoichiometry N (mol/mol (printed as 2:2)) in assay [2] came to 1. In assay [3], this substance registered a dH of -8.61 kcal/mol and a stoichiometry N (mol/mol (printed as 1:1)) of 1.

In the case of “XfYgiT, antitoxin of the toxin-antitoxin system of Xylella fastidiosa subsp. pauca strain 9a5c (natural protein)”, the stoichiometry N in assay [2] and in assay [4] was 2 in each case.
